# From US20200270588A1, “GLUCOSYL TRANSFERASE POLYPEPTIDES AND METHODS OF USE” (Syngenta Participations AG, priority 2017, published 2020)
# Columns and labels:
# Experiment in all cases: UDP-Glo glucosyl transferase assay, purified enzyme
# Type in all cases: biochemical, Zea mays
# [1] = test system: CN1CC(O)N(c2cc(C(F)(F)F)c(Cl)cn2)C1=O; conditions: other: control = inactive H24A mutant of bx9 (asterisk), pH 7.5
# [2] = test system: CN1CC(O)N(c2cc(C(F)(F)F)ccn2)C1=O; conditions: other: DMSO reagent blank as control, pH 7.5
# [3] = test system: CON1C(=O)N(c2cc(C(F)(F)F)c(Cl)cn2)C(O)C1C; conditions: other: control = inactive H24A mutant of bx9 (asterisk), pH 7.5
# [4] = test system: CON1C(=O)N(c2cc(C(F)(F)F)ccn2)C(O)[C@@H]1C; conditions: other: DMSO reagent blank as control, pH 7.5
# [5] = test system: Cc1cnc(N2C(=O)N(C)CC2O)cc1C(F)(F)F; conditions: other: control = inactive H24A mutant of bx9 (asterisk), pH 7.5
# [6] = test system: CON1C(=O)N(c2cc(C(F)(F)F)ccn2)C(O)[C@@H]1C; conditions: other: DMSO reagent blank as control, pH 7.5; remark: listed apart in the source
# Experimental: (§1) Glucosyl transferase activity is assayed via measurement of acceptor substrate-dependent production of UDP from ultrapure UDP-glucose using the Promega UDP-Glo™ method and according to the manufacturer's instructions. Assays are run in 96 well microtiter plates.
# (§2) Enzyme, typically at a stock concentration of ˜2 mg/ml is diluted to an appropriate concentration in 50 mM K^+ Hepes buffer at pH7.5 containing 0.5 mg/mL bovine serum albumin (BSA) and 5 ul aliquots of this diluted enzyme added to each well of a Perkin Elmer white ½ area 96 well plate. […] Assays are run for an appropriate time (usually 10 to 60 min) so that the amount of UDP formed lies within the most nearly linear part of the UDP standard curve and are stopped with the addition and mixing of 25 ul UDP-Glo™ detection reagent (prepared as described below). Plates are then incubated at room temperature for 60 minutes and then read in a luminescence plate reader (Perkin Elmer Envision 2130 Multilabel Reader). A UDP standard curve is run alongside each set of assays and reagent blank control assays run with DMSO in place of test herbicide. Typically, 300 pmol of UDP corresponds to a Relative Luminescence Unit (RLU) reading of about 1.5E7 and the response curve between 0 and 600 pmol is fitted to a polynomial function (see for example FIG. 2).
# (§3) The UDP-Glo™ reagents are made up and used according to the manufacturer's instructions. Thus, Nucleotide Detection Buffer and ATP are combined to make nucleotide detection reagent (NDR) dispensed into aliquots and frozen to be freshly thawed before use.
# (§4) Km and kcat values in respect of UDP-glucose are derived by carrying out experiments to measure initial rates over a suitable range of concentrations of UDP glucose out at a fixed near saturating concentration of acceptor substrate. Best fit values of kcat, Km and kcat/Km are obtained by direct fitting of the data to the Michaelis-Menten equation using Graphpad Prism™ software.
# (§5) Variants of C-terminally his tagged SEQ ID No:1 (w/t bx9 from Zea mays), exemplified as SEQ ID 16-30, were cloned, purified and assayed as described in Example 1. FIG. 4 depicts the data from some experiments to determine the kinetic parameters of some of these variants in respect of herbicide VI and table 12 summarizes the estimates of kinetic parameters obtained from further such experiments in respect of a range of herbicides.
# [7] = test system: CN1CC(O)N(c2cc(C(F)(F)F)ccn2)C1=O; conditions: other: DMSO reagent blank as control, pH 7.5; remark: listed apart in the source
# Experimental: as §1, §2, §3, §4, §5
substance,measurement,setting,value
"SEQ ID NO 17, zmBX9 S117V, M279F, A334K mutant (Zea mays; A334K/M279F/S117V)",Km,[1],10530 µM
same,kcat,[1],2.04 s⁻¹
same,kcat/Km,[1],190 M⁻¹ s⁻¹
same,Km,[2],109.7 µM
same,kcat,[2],0.852 s⁻¹
same,kcat/Km,[2],7800 M⁻¹ s⁻¹
same,Km,[3],190 µM
same,kcat,[3],2.08 s⁻¹
same,kcat/Km,[3],11200 M⁻¹ s⁻¹
same,Km,[4],2.2 µM
same,kcat,[4],2.08 s⁻¹
same,kcat/Km,[4],938000 M⁻¹ s⁻¹
same,Km,[5],800 µM
same,kcat,[5],0.38 s⁻¹
same,kcat/Km,[5],480 M⁻¹ s⁻¹
"SEQ ID NO 16, zmBX9 S117V, M279F, A334R mutant (Zea mays; A334R/M279F/S117V)",Km,[6],2.8 µM
same,kcat,[6],2.45 s⁻¹
same,kcat/Km,[6],880000 M⁻¹ s⁻¹
"SEQ ID 24, mutant of Zea mays bx9 glucosyl transferase (Zea mays; A334K/L194C/M279F/S117V)",Km,[7],45.5 µM
same,kcat,[7],2.61 s⁻¹
same,kcat/Km,[7],57500 M⁻¹ s⁻¹
